Key:
[1] = target: dynamic microtubules grown from coverslip-anchored biotinylated GMPcPP seeds (bovine brain tubulin) (bovine) (UniProt Q6B856); test: laser trap bidirectional sliding friction assay; anti-His beads densely coated with recombinant Ndc80c (about 3,000 complexes a bead, not single-molecule conditions) on the sides of coverslip-anchored dynamic microtubules; constant force along the axis, direction reversed; speeds at 1 ± 0.5 pN
[2] = target: dynamic microtubules grown from coverslip-anchored biotinylated GMPcPP seeds (bovine brain tubulin) (bovine) (UniProt Q6B856); test: laser trap bidirectional sliding friction assay; beads decorated sparsely with native kinetochore particles on the sides of coverslip-anchored dynamic microtubules; constant force 0.5-3 pN along the axis, direction reversed periodically; speeds at 1 ± 0.5 pN
[3] = target: dynamic microtubules grown from coverslip-anchored biotinylated GMPcPP seeds (bovine brain tubulin) (bovine) (UniProt Q6B856); test: laser trap rupture force assay; kinetochore particles sparsely on anti-His polystyrene beads, attached near the tips of dynamic microtubules grown from coverslip-anchored seeds; preload about 1 pN, then force ramp 0.25 pN/s until detachment; growth buffer (BRB80, 1 mM GTP, tubulin)

Q: With “recombinant human Ndc80 complex (from UniProt O14777 1-642; Q9BZD4 1-464; Q8NBT2 1-197; Q9HBM1 1-224)” as the substance, how does the mean sliding speed of side-attached beads under 1 pN toward the minus end [1] read?
A: 464 nm·s^-1

Q: What about the mean sliding speed of side-attached beads under 1 pN toward the plus end [1] of the same substance?
A: 130 nm·s^-1

Q: How did the mean sliding speed of side-attached beads under 1 pN toward the minus end [2] turn out when “native kinetochore particles isolated from yeast (Dsn1-6His-3Flag) (from UniProt P40568 1-576) (complex)” was run?
A: 674 nm·s^-1

Q: What about the mean sliding speed of side-attached beads under 1 pN toward the plus end [2] of the same substance?
A: 109 nm·s^-1

Q: And the mean rupture strength at microtubule minus ends [3]?
A: 3.3 pN

Q: What about the mean rupture strength at microtubule plus ends [3] of the same substance?
A: 9.7 pN
